Laboratory results: paper PMC12422969

Target: GluA3-G (GluA3(Gly439)), flip splice form, R/G-edited, as the GluA3 part of the GluA3-G–TARP-γ2 tandem construct (rat)
Assay: cryo-EM structure; apo state; GluA3–TARP-γ2 tandem construct purified as a complex from Expi293 cells (digitonin lysis; 50 mM Tris pH 8, 150 mM NaCl, 0.1% GDN), 2–3 mg/ml, vitrified at 4 °C

GluA3-G (GluA3(Gly439)), flip splice form, R/G-edited, as the GluA3 part of the GluA3-G–TARP-γ2 tandem construct (receptor)
stoichiometry N: 4
